Where a chain is given by its changes, count along the chain named. Names and notes keep the numbering of the source.

The labels stand for the following.
B1: AB1 alanine variant 19 (H:Y26A) (antibody, V domains shown)
VH: QVQLQQSGAELAKPGSSVKISCKAAGSSFTTNSIHWIKQTTGQALEWTGYIAPGSGGARYNEKFKGKATLTVDKSSGTAYMQLSSLTPVDTAVYYCALNIGTNPFTYWGQGTLVTVSS
VL: DIVMTQGALPNPVPSGESVSITCRSSKSLLYSDGKTYLNWYLQRPGQSPQLLIYWMSTRASGVSDRFSGSGSGTDFTLKISGVEAEDVGVYYCQQGLEFPRTFGSGTKLEIK
notes: IMGT numbering; IgG1, as m1; also called control; source: HEK293FT, transiently transfected, purified (Protein A)
B2: AB1 affinity maturation variant 12 (H:F115H) (antibody, V domains shown)
VH: B1 VH with A25Y, F105H
VL: B1 VL
notes: IMGT numbering; IgG1, as m1; source: HEK293FT, transiently transfected, purified (Protein A)
B3: AB1 affinity maturation variant 8 (H:I108R) (antibody, V domains shown)
VH: B1 VH with A25Y, I100R
VL: B1 VL
notes: as for B2
B4: AB1 alanine variant 1 (H:S29A) (antibody, V domains shown)
VH: B1 VH with A25Y, S28A
VL: B1 VL
notes: as for B2
B5: AB1 affinity maturation variant 6 (H:G64T) (antibody, V domains shown)
VH: B1 VH with A25Y, G57T
VL: B1 VL
notes: as for B2
B6: AB1 affinity maturation variant 4 (H:N37T) (antibody, V domains shown)
VH: B1 VH with A25Y, N32T
VL: B1 VL
notes: as for B2
B7: AB1 alanine variant 9 (H:T35A, H:N107A, L:R116A) (antibody, V domains shown)
VH: B1 VH with A25Y, T30A, N99A
VL: B1 VL with R101A
notes: as for B2
B8: AB1 alanine variant 12 (H:N107A) (antibody, V domains shown)
VH: B1 VH with A25Y, N99A
VL: B1 VL
notes: as for B2
B9: AB1 affinity maturation variant 5 (H:G59Y) (antibody, V domains shown)
VH: B1 VH with A25Y, G54Y
VL: B1 VL
notes: as for B2
B10: AB1 affinity maturation variant 14 (L:S32D) (antibody, V domains shown)
VH: B1 VH with A25Y
VL: B1 VL with S32D
notes: as for B2
B11: AB1 affinity maturation variant 3 (H:T36Q) (antibody, V domains shown)
VH: B1 VH with A25Y, T31Q
VL: B1 VL
notes: as for B2
B12: AB1 alanine variant 11 (H:Y55A) (antibody, V domains shown)
VH: B1 VH with A25Y, Y50A
VL: B1 VL
notes: as for B2
B13: AB1 affinity maturation variant 18 (L:Y38R) (antibody, V domains shown)
VH: B1 VH with A25Y
VL: B1 VL with Y37R
notes: as for B2
B14: AB1 alanine variant 22 (L:Y31A/D34A) (antibody, V domains shown)
VH: B1 VH with A25Y
VL: B1 VL with Y31A, D33A
notes: IMGT numbering; IgG1, as m1; intermediate construct; source: HEK293FT, transiently transfected, purified (Protein A)
B15: AB1 alanine variant 21 (L:Y31A/Y38A) (antibody, V domains shown)
VH: B1 VH with A25Y
VL: B1 VL with Y31A, Y37A
notes: as for B14
B16: AB1 alanine variant 10 (H:S28A) (antibody, V domains shown)
VH: B1 VH with A25Y, S27A
VL: B1 VL
notes: as for B2
B17: AB1 affinity maturation variant 15 (L:D34Q) (antibody, V domains shown)
VH: B1 VH with A25Y
VL: B1 VL with D33Q
notes: as for B2
B18: AB1 alanine variant 14 (L:Y31A) (antibody, V domains shown)
VH: B1 VH with A25Y
VL: B1 VL with Y31A
notes: as for B2
B19: AB1 alanine variant 4 (H:N113A) (antibody, V domains shown)
VH: B1 VH with A25Y, N103A
VL: B1 VL
notes: as for B2
B20: AB1 affinity maturation variant 20 (L:Q106Y) (antibody, V domains shown)
VH: B1 VH with A25Y
VL: B1 VL with Q95Y
notes: IMGT numbering; IgG1, as m1; also called neutral control mutation; source: HEK293FT, transiently transfected, purified (Protein A)
B21: AB1 alanine variant 20 (L:S26A) (antibody, V domains shown)
VH: B1 VH with A25Y
VL: B1 VL with S26A
notes: as for B1
B22: AB1 affinity maturation variant 9 (H:T110W) (antibody, V domains shown)
VH: B1 VH with A25Y, T102W
VL: B1 VL
notes: as for B2
B23: AB1 affinity maturation variant 11 (H:N113R) (antibody, V domains shown)
VH: B1 VH with A25Y, N103R
VL: B1 VL
notes: as for B2
B24: AB1 alanine variant 8 (H:T110A, L:Y31A, L:D34A) (antibody, V domains shown)
VH: B1 VH with A25Y, T102A
VL: B1 VL with Y31A, D33A
notes: as for B2
B25: AB1 alanine variant 3 (H:R66A) (antibody, V domains shown)
VH: B1 VH with A25Y, R59A
VL: B1 VL
notes: as for B2
B26: AB1 alanine variant 23 (H:T35A/N107A/L:Y31A) (antibody, V domains shown)
VH: B1 VH with A25Y, T30A, N99A
VL: B1 VL with Y31A
notes: as for B14
B27: AB1 alanine variant 5 (H:Y55A, H:R66A, L:Y31A) (antibody, V domains shown)
VH: B1 VH with A25Y, Y50A, R59A
VL: B1 VL with Y31A
notes: as for B2
B28: AB1 alanine variant 6 (H:S29A, L:Y31A, L:Y38A) (antibody, V domains shown)
VH: B1 VH with A25Y, S28A
VL: B1 VL with Y31A, Y37A
notes: as for B2
B29: AB1 affinity maturation variant 13 (H:T116R) (antibody, V domains shown)
VH: B1 VH with A25Y, T106R
VL: B1 VL
notes: as for B2
B30: AB1 affinity maturation variant 7 (H:A65Y) (antibody, V domains shown)
VH: B1 VH with A25Y, A58Y
VL: B1 VL
notes: as for B2
B31: AB1 alanine variant 2 (H:T35A) (antibody, V domains shown)
VH: B1 VH with A25Y, T30A
VL: B1 VL
notes: as for B2
B32: AB1 affinity maturation variant 17 (L:K36R) (antibody, V domains shown)
VH: B1 VH with A25Y
VL: B1 VL with K35R
notes: as for B2
B33: AB1 affinity maturation variant 2 (H:S29D) (antibody, V domains shown)
VH: B1 VH with A25Y, S28D
VL: B1 VL
notes: as for B2
B34: AB1 affinity maturation variant 10 (H:T110F) (antibody, V domains shown)
VH: B1 VH with A25Y, T102F
VL: B1 VL
notes: as for B2
B35: AB1 alanine variant 16 (L:K36A) (antibody, V domains shown)
VH: B1 VH with A25Y
VL: B1 VL with K35A
notes: as for B2
B36: AB1 alanine variant 13 (H:T110A) (antibody, V domains shown)
VH: B1 VH with A25Y, T102A
VL: B1 VL
notes: as for B2
B37: AB1 affinity maturation variant 19 (L:F114R) (antibody, V domains shown)
VH: B1 VH with A25Y
VL: B1 VL with F99R
notes: as for B2
B38: AB1 alanine variant 15 (L:D34A) (antibody, V domains shown)
VH: B1 VH with A25Y
VL: B1 VL with D33A
notes: as for B2
B39: AB1 alanine variant 18 (L:R116A) (antibody, V domains shown)
VH: B1 VH with A25Y
VL: B1 VL with R101A
notes: as for B2
B40: AB1 alanine variant 17 (L:Y38A) (antibody, V domains shown)
VH: B1 VH with A25Y
VL: B1 VL with Y37A
notes: as for B2

In the experiment the target is T1, biotinylated murine CCL20 (Mus musculus, UniProt O89093, biotin).
T1 construct: CCL20, mouse; recombinant; m2 with biotin; also called biotinylated muCCL20; muCCL20 antigen; source: in-house, standard mammalian cell expression; biotinylated
Description: ELISA; capture ELISA: plate-coated anti-mouse Fc antibody (1 ug/mL) captures the antibody variant (5 ug/mL); biotinylated muCCL20 titrated from 0 to 600 nM, 1 h. The settings on record: both partners purified. In general terms: An ELISA detects its analyte on a solid surface through an enzyme-linked reagent.
B1: the binding result was “binds”.

In the case of B2, the binding result is listed as “binds”.

As to B3, the binding result was “binds”.

On to B4, for which the binding result was “binds”.

Consider B5, for which the binding result is listed as “binds”.

As to B6, the binding result is on record as “binds”.

B7: the binding result is “no binding (tested: 600 nM)”.

Take B8: the binding result is “no binding (tested: 600 nM)”.

Consider B9, for which the binding result is on record as “binds”.

On to B10, for which the binding result is given as “binds”.

With B11, the binding result is “binds”.

For the molecule B12, the binding result is recorded as “no binding (tested: 600 nM)”.

On to B13, for which the binding result is “binds”.

Regarding B14, the binding result is “no binding (tested: 600 nM)”.

Take B15: the binding result is recorded as “no binding (tested: 600 nM)”.

Take B16: the binding result is listed as “binds”.

In the case of B17, the binding result was “binds”.

Take B18: the binding result is “binds”.

For the molecule B19, the binding result is reported as “no binding (tested: 600 nM)”.

Take B20: the binding result was “binds”.

As for B21, the binding result was “binds”.

Take B22: the binding result is listed as “binds”.

B23: the binding result was “binds”.

B24: the binding result is listed as “no binding (tested: 600 nM)”.

With B25, the binding result was “binds”.

On to B26, for which the binding result is listed as “no binding (tested: 600 nM)”.

Take B27: the binding result is given as “binds”.

On to B28, for which the binding result is listed as “no binding (tested: 600 nM)”.

Turning to B29, the binding result is given as “binds”.

With B30, the binding result is reported as “binds”.

With B31, the binding result was “binds”.

Turning to B32, the binding result was “binds”.

Consider B33, for which the binding result is listed as “binds”.

Take B34: the binding result is reported as “binds”.

As to B35, the “fold reduction of binding affinity against WT AB1” value was found to be 3 fold.

With B36, the binding result was “binds”.

As to B37, the binding result is recorded as “binds”.

With B38, the binding result is reported as “no binding (tested: 600 nM)”.

As for B39, the binding result is “binds”.

Regarding B40, the binding result was “no binding (tested: 600 nM)”.

For the origin of these results see publication PMC6513101, “Experimentally guided computational antibody affinity maturation with de novo docking, modelling and rational design” (PLoS Computational Biology, 2019).
